From paper PMC7473840 (2018) come the findings set out here.

In the assay the target is FMRP (Homo sapiens, UniProt Q06787).

No end group written: not given here.

B1: Kv1.2 C-terminal phosphopeptide pS440 C-terminus (peptide)
chain: TSCPKIPSSPDLKKS
modifications: also: phosphoserine pS440, position in chain not given here
Consider B1, for which the Kd – broadly, the free concentration of one partner at which half of the binding sites on the other are occupied at equilibrium, for simple one-to-one binding – is 33.9 µM.

B2: Kv1.2 C-terminal phosphopeptide pS440 C-terminus (peptide)
chain: TSCPKIPSSPDLKKS
modifications: also: phosphoserine pS440 plus a second phosphosite, positions not given here
In turn, B2 came in with a dissociation constant (Kd) of 0.42 µM.
